According to patent KR20230163144A:

B1: WM-A1-3128 (antibody, V domains shown)
VH: QVQLVESGGGVVQPGKSLRLSCAASGFSLRTYGMHWVRQAPGKGLEWVANIWHDGSHTFYADSVQGRFTVSRDNSANLLFLQMNSLRAEDTAVYYCARGGSYSRYSDAFDIWGQGTVITVSS
VL: DIQMTQSPGTLSLSPGERATLSCRASQSVSSSYLAWYQQKPGQAPRLLIYDASNRATGIPARFSGTGSGTDFTLTISSLEPEDFAVYYCQQRSNWPLTFGGGTKVEIK
B2: WM-A1-3106 (antibody, V domains shown)
VH: QVQLVESGGGVVPPGGSVRLSCAASGFTFGDYAMHWVRQAPGKGLEWVSLISGDGGTTYYGDSVKGRYTISRDNSKNSLYLQMNSLRAEDTAVYYCARGGRVYGMDVWGQGTTVTVSS
VL: DIQMTQSPSSLSASVGNRVTITCRASQGISVWLAWFQQKPETAPKSLIYGSSNLQSGVPSRFSGSGSGTDFTLTINNLQPEDFATYYCQQYKASPPTFGGGTKVDIK
B3: WM-A1-3133 (antibody, V domains shown)
VH: QMQLVQSGGKLVQPGSSLRLSCAASGFSFDDYGMSWVRQAPGKGLEWVSAISGSGGSTYYADSVKGRFTISRDNSKNTLYLQMNSLRAEDTAVYYCARGGRVYGMDVWGQGTTVTVSS
VL: DIQMTQSPSSVSASVGDTVTITCRASHDIRRWLAWYQQKPGEVPKVLIYAAAVLHSGVPSRFSGSGSGTDFSLTITNLQPEDVATYYCQKYDSVPFTFGGGTKLEIK
B4: WM-A1-2613 (antibody, V domains shown)
VH: QVQLQESGPGLVKPSGTLSLTCAVSGDSVISTDWWSWVRQPPGKELEWIGEIHHSGSTNYNPSLEGRVTISVDKSKNQFSLKLTSVTAVDTAVYYCSRGSGGRDAFDVWGQGTMITVSS
VL: QSALTQPPSSSGTPGQKVTISCSGSMSNIGGNYVSWYQQVPGTAPKLLIFKTNQGAAGVPDRFVGSKSGTSASLVISGLRPEDEATYYCASWDDIGDGPTWVFGGGTKLTVL
B5: WM-A1-2608 (antibody, V domains shown)
VH: QVQLVQSGGGLVQPGGSLRLSCEASGFAFRRYEMNWVRQTPGKGLEWIAYINSGGSVKVYADSVKGRFAISRNDSKNSLYLQMNSLRAEDTAVYYCARAGNAFGTFDYWGQGTLVTVSS
VL: DIQMTQSPSSVSASVGDRVTITCRASQDISRWLAWYQQKPGKAPKRLMYAASVLDVGVPSRFSGSGSGTDFTLTISNLQPEDFATYYCQQPISFPLTFGGGTKVDIK
B6: WM-A1-3105 (antibody, V domains shown)
VH: QMQLVQSGAEVKRPGSSVKVSCKASGRSTYNYAFYWVRQAPGHGLEWMGGIIPIFGATNYAQKFQGRVTITADESTNTAYMEVTNLRSEDTAVYYCAKGSGNYYYGMDVWGQGTTVTVSS
VL: DIQMTQSPSSVSASVGDRVTITCRASQSVGTWLAWYQQKPGRAPKLLISAASSLHPGVPSRFSGSGSGTDFTLTISSLQPEDFATYYCQQADSFPYTFGQGTKLEIK
B7: WM-A1-3102 (antibody, V domains shown)
VH: QMQLVQSGAEVKKPGSSVKVSCKASGGTFSSYAISWVRQAPGQGLEWMGGIIPVLGATNYAQRFQGRVTMTADESTTTAYMELSGLRSEDTAVYYCARGRSWGFDYWGHGTLITVSS
VL: DIVMTQTPLSLPVTPGQPASISCKSSQSLLHSDGNTYLDWYLQKPGQSPQLLIYTLSHRASGVPDRFSGSGSGTDFTLKISRVEADDVGLYYCMQRIEFPYTFGQGTKVEIK

Target: IGSF1 항원 (IGSF1 카복시 말단 도메인의 세포외 도메인 - 인간 Fc - his tag 융합 단백질) (human) (UniProt Q8N6C5)
Test: ELISA; human IGSF1 antigen diluted 1/3 from 100 nM to 0.046 nM; fit in GraphPad Prism 6

Binder	Kd [nM]
B1	27.2
B2	20.8
B3	300
B4	0.1
B5	0.097
B6	29.5
B7	18.8
